Where a chain is given by its changes, count along the chain named.
T1: human BMPRII protein (Sino Biological, #10551-H08H) (human, UniProt Q13873 27-150)
T1 sequence (looked up): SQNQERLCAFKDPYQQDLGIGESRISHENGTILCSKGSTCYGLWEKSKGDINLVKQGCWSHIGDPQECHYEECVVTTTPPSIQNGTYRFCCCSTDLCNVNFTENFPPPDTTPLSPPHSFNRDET

B1: DGL627 (bispecific antibody)
chain 1: not shown
chain 2: EVQLLESGGGLVQPGGSLRLSCAASGFTFSDYYMTWIRQAPGKGLEWVSSISGGSTYYADSRKGRFTISRDNSENTLYLQMNSLRAEDTAVYYCARDFGVAGWFGQYGMDVWGQGTLVTVSSGGGGSGGGGSGGGGSQSVLTQPPSASGTPGQRVTISCTGSSSNIGAGYDVHWYQQLPGTAPKLLIYRSNQRPSGVPDRFSGSKSGTSASLAISGLRSEDEADYYCSSYAGNYNLVFGGGTKLTVLDKTHTCPPCPAPEAAGAPSVFLFPPKPKDTLMISRTPEVTCVVVDVSHEDPEVKFNWYVDGVEVHNAKTKPREEQYNSTYRVVSVLTVLHQDWLNGKEYKCKVSNKALPAPIEKTISKAKGQPREPQVCTLPPSRDELTKNQVSLSCAVKGFYPSDIAVEWESNGQPENNYKTTPPVLDSDGSFFLVSKLTVDKSRWQQGNVFSCSVMHEALHNHYTQKSLSLSPGWSHPQFEK
B2: DGL625 (bispecific antibody)
chain 1: not shown
chain 2: B1 chain 2
B3: DGL634 (bispecific antibody)
chain 1: not shown
chain 2: EVQLLESGGGLVQPGGSLRLSCAASGFTFSNAWMNWVRQAPGKGLEWVSSISSSSSYIYYADSVKGRFTISRDNSKNTLYLQMNSLRAEDTAVYYCARAVAAGGMFWGLDQWGQGTLVTVTSSGGGGSGGGGSGGGGSQSVLTQPPSASGTPGQRVTISCSGSRSNIGSNSVHWYQQLPGTAPKLLIYGNSNRPSGVPDRFSGSKSGTSASLAISGLRSEDEADYYCQSYDSSLNDHVVFGGGTKLTVLDKTHTCPPCPAPEAAGAPSVFLFPPKPKDTLMISRTPEVTCVVVDVSHEDPEVKFNWYVDGVEVHNAKTKPREEQYNSTYRVVSVLTVLHQDWLNGKEYKCKVSNKALPAPIEKTISKAKGQPREPQVCTLPPSRDELTKNQVSLSCAVKGFYPSDIAVEWESNGQPENNYKTTPPVLDSDGSFFLVSKLTVDKSRWQQGNVFSCSVMHEALHNHYTQKSLSLSPGWSHPQFEK
B4: DGL896 (bispecific antibody)
chain 1: not shown
chain 2: B1 chain 2 with Y33W, S55T, A101S
B5: DGL897 (bispecific antibody)
chain 1: not shown
chain 2: B1 chain 2 with A101S
B6: DGL898 (bispecific antibody)
chain 1: not shown
chain 2: B1 chain 2 with Y33W
B7: DGL899 (bispecific antibody)
chain 1: not shown
chain 2: B1 chain 2 with S55T
B8: DGL900 (bispecific antibody)
chain 1: not shown
chain 2: B1 chain 2 with Y33W, S55T, A101S
B9: DGL901 (bispecific antibody)
chain 1: not shown
chain 2: B1 chain 2 with A101S
B10: DGL902 (bispecific antibody)
chain 1: not shown
chain 2: B1 chain 2 with Y33W
B11: DGL903 (bispecific antibody)
chain 1: not shown
chain 2: B1 chain 2 with S55T
B12: DGL904 (bispecific antibody)
chain 1: not shown
chain 2: B1 chain 2 with Y33W, S55T, A101S
B13: DGL905 (bispecific antibody)
chain 1: not shown
chain 2: B1 chain 2 with T35N, R62V, Y107F
B14: DGL906 (bispecific antibody)
chain 1: not shown
chain 2: B1 chain 2 with Y32S, T35S, R62V, W103Y
B15: DGL907 (bispecific antibody)
chain 1: not shown
chain 2: B1 chain 2 with T35N, R62V, Q106Y
B16: DGL908 (bispecific antibody)
chain 1: not shown
chain 2: B1 chain 2 with A101S
B17: DGL909 (bispecific antibody)
chain 1: not shown
chain 2: B1 chain 2 with Y33W
B18: DGL910 (bispecific antibody)
chain 1: not shown
chain 2: B1 chain 2 with S55T
B19: DGL911 (bispecific antibody)
chain 1: not shown
chain 2: B1 chain 2 with Y33W, S55T, A101S
B20: DGL912 (bispecific antibody)
chain 1: not shown
chain 2: B1 chain 2 with T35N, R62V, Y107F
B21: DGL913 (bispecific antibody)
chain 1: not shown
chain 2: B1 chain 2 with Y32S, T35S, R62V, W103Y
B22: DGL914 (bispecific antibody)
chain 1: not shown
chain 2: B1 chain 2 with T35N, R62V, Q106Y
B23: DGL915 (bispecific antibody)
chain 1: not shown
chain 2: B1 chain 2 with A101S
B24: DGL916 (bispecific antibody)
chain 1: not shown
chain 2: B1 chain 2 with Y33W
B25: DGL917 (bispecific antibody)
chain 1: not shown
chain 2: B1 chain 2 with S55T
B26: DGL918 (bispecific antibody)
chain 1: not shown
chain 2: B1 chain 2 with Y33W, S55T, A101S

These binders were tested against T1, human BMPRII protein (Sino Biological, …) (assay: ELISA, coated human BMPRII).
Protocol: (§1) These binders were then tested using an ELISA assay. High binding plates (Corning, 9018) were coated with either 2 μg/ml of human BMPRII protein (Sino Biological, #10551-H08H) or 2 μg/ml of human ALK1 protein (Sino Biological, #10066-H08H) overnight at 4C. The plates were then washed three times with wash buffer (R&D Systems, WA126). […] The plates were then washed three times with wash buffer and DGL antibodies or controls, which were diluted with PBS and 0.1% BSA. The antibodies were incubated for one hour at room temperature and then the plates were washed three times with wash buffer. The plates were then incubated with mouse anti-human IgG Fc secondary—HRP (diluted with PBS/0.1% BSA); 100 ul per well at 2 μg/ml and incubated at room temperature for one hour. The plate was washed three times in wash buffer and then 100 ul TMB (R&D Systems, DY9998B, substrate reagent pack). After the wells turn blue, 50 ul of stop solution (R&D Systems, DY994) was added to each well and the absorbance of the plate was read at 450 nm. results can be found in Table 8.

| Binder | Abs450 1 nM | Abs450 10 nM | Abs450 100 nM |
| --- | --- | --- | --- |
| B1 | 0.15 | 0.22 | 0.66 |
| B2 | 0.17 | 0.35 | 1.21 |
| B3 | 0.12 | 0.19 | 0.4 |

The binders below were run against T2, ALK-1/BMPR-2 receptor pair of the PathHunter U2Os dimerization cells (DiscoverX 93-0962C3) (UniProt P37023 22-503; Q13873 27-1038) (assay: cell-based or functional assay).
T2 sequence (P37023 22-503, one chain of several): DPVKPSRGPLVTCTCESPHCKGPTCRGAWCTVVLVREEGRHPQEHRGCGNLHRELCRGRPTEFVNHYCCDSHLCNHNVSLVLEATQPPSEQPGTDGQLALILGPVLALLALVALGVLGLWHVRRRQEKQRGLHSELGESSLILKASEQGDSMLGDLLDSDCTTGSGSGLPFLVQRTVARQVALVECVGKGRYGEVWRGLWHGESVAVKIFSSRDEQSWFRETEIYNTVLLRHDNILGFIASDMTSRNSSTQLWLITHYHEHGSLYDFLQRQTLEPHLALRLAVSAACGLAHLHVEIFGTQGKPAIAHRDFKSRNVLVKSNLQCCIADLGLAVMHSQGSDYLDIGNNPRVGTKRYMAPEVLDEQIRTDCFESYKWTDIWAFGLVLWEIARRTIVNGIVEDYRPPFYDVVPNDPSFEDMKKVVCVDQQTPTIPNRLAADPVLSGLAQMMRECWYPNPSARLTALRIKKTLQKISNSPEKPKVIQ

| Binder | % Emax BMP9 [%] | Emax (RLU) |
| --- | --- | --- |
| B4 | 10 | 282000 |
| B5 | 26 | 701000 |
| B6 | 19 | 509000 |
| B7 | 30 | 812000 |
| B8 | 12 | 333000 |
| B9 | 29 | 800000 |
| B10 | 19 | 529000 |
| B11 | 34 | 918000 |
| B12 | 17 | 475000 |
| B13 | 36 | 972000 |
| B14 | -2 | -41100 |
| B15 | 12 | 321000 |
| B16 | 45 | 1.23e+06 |
| B17 | 24 | 663000 |
| B18 | 49 | 1.33e+06 |
| B19 | 19 | 521000 |
| B20 | 33 | 910000 |
| B21 | 0 | 8420 |
| B22 | 20 | 557000 |
| B23 | 5 | 124000 |
| B24 | 41 | 1.11e+06 |
| B25 | 17 | 469000 |
| B26 | 46 | 1.24e+06 |

Target: T2, ALK-1/BMPR-2 receptor pair of the …
Test: cell-based or functional assay
Remark: another data set of the same source

| Binder | % Emax BMP9 [%] | Emax (RLU) |
| --- | --- | --- |
| B1 | 14 | 502000 |
| B2 | 17 | 615000 |
| B3 | 16 | 288000 |

The binders below were run against human ALK1 protein (Sino Biological, #10066-H08H) (human, UniProt P37023 22-118) (assay: ELISA, coated human ALK1).
Protocol: as §1

Chain of human ALK1 protein (Sino Biological, #10066-H08H) (P37023 22-118 limits assumed): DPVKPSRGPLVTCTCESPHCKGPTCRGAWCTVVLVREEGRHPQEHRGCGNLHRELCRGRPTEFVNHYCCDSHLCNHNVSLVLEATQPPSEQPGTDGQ

| Binder | Abs450 1 nM | Abs450 10 nM | Abs450 100 nM |
| --- | --- | --- | --- |
| B1 | 0.05 | 0.07 | 0.07 |
| B2 | 0.07 | 0.07 | 0.11 |

From patent publication US20250002588A1 (DIAGONAL THERAPEUTICS, published 2025)
